Columns and labels:
purified protein [1] = substrate: Cc1cn([C@H]2C[C@H](O)[C@@H](COP(=O)(O)OP(=O)(O)OP(=O)(O)O)O2)c(=O)[nH]c1=O; test: purified protein; type: biochemical, Dugesia ryukyuensis; details: 5 mM MgCl2, 100 mM KCl, 0.25 mM Bicine, pH 8.2, 100 µM nucleotide, 4–6 µM enzyme, n = 3
purified protein [2] = substrate: O=c1ccn([C@H]2C[C@H](O)[C@@H](COP(=O)(O)OP(=O)(O)OP(=O)(O)O)O2)c(=O)[nH]1; test: purified protein; type: biochemical, Dugesia ryukyuensis; details: 5 mM MgCl2, 100 mM KCl, 0.25 mM Bicine, pH 8.2, 25 °C, 10 µM dUTP, n = 7, kcat assumes three active sites per trimer, 25.0 °C

B1: Dr-dUTPase (Dugesia ryukyuensis; R66K) (protein)
chain: MSALKVLRFKKLSENATVPSRGSVLAAGFDLCSAENCVIPARGKQLVKTDIQISLPEGCYGRVAPKSGLALKHFIDVGAGVIDQDYRGNVGIVMFNFSENEFPISKGDRIAQLICERIYTPELLECESLDETERGEGGYGSTGINNSSQKNGH
notes: full-length 153 aa ORF, codon-optimized, pET-15b, E. coli BL21(DE3); His-tag cut by thrombin, N-terminal GSH left; 156 aa, 16,807 Da; R66K (G197A) removes internal thrombin site
Q: What does the source list for B1?
A: Km (purified protein [1]): 1.1 × 10^2 ± 7.2 μM; kcat (purified protein [1]): 1.4 ± 0.3 s⁻¹; kcat/Km (purified protein [1]): 13000 ± 2800 M⁻¹ s⁻¹; Km (purified protein [2]): 4.0 ± 0.4 µM; kcat (purified protein [2]): 34 s⁻¹; kcat/Km (purified protein [2]): 8.5e+06 ± 1.1e+06 M⁻¹ s⁻¹
